Drawing on patent publication US20200010547A1, this text covers specific lysis of CD30+ tumor cells by NK cells, 4-hour 51Cr release assay for one substance.

In the assay the target is CD30 on CD30+ lymphoma cell lines (UniProt P28908). The assay can be described thus: cell-based or functional assay.
Sequence of UniProt P28908 (P28908 19-595 limits assumed): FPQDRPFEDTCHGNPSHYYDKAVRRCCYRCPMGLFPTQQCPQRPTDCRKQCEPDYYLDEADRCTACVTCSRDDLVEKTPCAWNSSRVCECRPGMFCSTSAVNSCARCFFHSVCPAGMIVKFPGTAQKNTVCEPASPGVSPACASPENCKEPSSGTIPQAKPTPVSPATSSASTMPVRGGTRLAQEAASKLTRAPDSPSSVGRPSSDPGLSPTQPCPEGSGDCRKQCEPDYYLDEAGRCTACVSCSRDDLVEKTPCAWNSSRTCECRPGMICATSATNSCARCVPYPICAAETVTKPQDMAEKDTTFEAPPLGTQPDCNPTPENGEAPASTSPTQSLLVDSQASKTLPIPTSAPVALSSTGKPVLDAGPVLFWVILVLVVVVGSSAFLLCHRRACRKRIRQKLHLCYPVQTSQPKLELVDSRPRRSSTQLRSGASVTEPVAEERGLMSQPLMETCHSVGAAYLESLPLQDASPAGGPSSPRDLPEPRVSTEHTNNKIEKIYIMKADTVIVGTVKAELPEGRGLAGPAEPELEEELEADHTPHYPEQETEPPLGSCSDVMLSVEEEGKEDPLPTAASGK

The substance “bispecific tetravalent CD30/CD16A tandem diabody AFM13 (bispecific antibody)” returned a specific lysis of CD30+ tumor cells by NK cells, 4-hour 51Cr release assay of 0.001 µg/mL.
